From US20240207380A1, “NOVEL PEPTIDE TARGETING DENDRITIC CELLS, AND COMPOSITION FOR TREATING CANCER COMPRISING SAME” (INDUSTRY FOUNDATION OF CHONNAM NATIONAL UNIVERSITY, priority 2021, published 2024)
Entries after “also recorded” stand apart in the source; their conditions may differ.

Tests used:
TLR5 = molecular target: T1, TLR5 (Homo sapiens, UniProt O60602); format: cell-based; conditions: HEK-Blue hTLR5 cells
T1 construct: host or cells: HEK-Blue hTLR5 cells (HEK293-derived reporter line, own knowledge: stably transfected with the human TLR5 gene and an NF-kB-inducible SEAP reporter)
Description: Also, the EC50 was calculated using triplicate OD 620 nm values for each protein concentration over a wide range of protein concentrations (0.0375 nM-19.29 nM at the AAT Bioquest website).

[1] = tested on: Bone marrow-derived dendritic cells (BMDCs); test: Cellular uptake of EF and DEF in BMDCs (flow cytometry); format: cell-based, C57BL/6 mice; conditions: 2 hours, anti-FlaB staining, FACS gated on CD11c+
Description: Cells treated with PBS alone were used as a negative control. After incubation, the cells were washed twice with cold 1×PBS containing 3% FBS and then stained with anti-mouse CD11c^+ antibody (eBioscience, Clone: N418, 25-0114-82) for 1 hour at 4° C. and fixed with 4% paraformaldehyde (T&I, BPP-9004) for 10 minutes at room temperature. The cells were permeabilized using a permeabilization kit according to the manufacturer's instructions (Invitrogen, 00-8333-56) and stained with anti-FlaB antibodies, followed by FACS analysis by gating upon the CD11c^+ population. The results are depicted in FIG. 14.

BMDCs or RAW264.7 cells = test: Intracellular distribution of EF and DEF by confocal microscopy; format: cell-based; conditions: 20 μg/ml, 2 hours
Description: After incubation, the cells were harvested, washed, fixed with 100% methanol for 15 minutes at room temperature, and stained with anti-mouse CD11c^+ APC-conjugated antibody and DAPI, a nuclear stain, for 1 hour at room temperature. After two washes with cold 1×PBS, the intercellular distributions of the peptides within the dendritic cells (CD11c^+) were determined by confocal microscopy (LSM800).

[2] = In vivo distribution of FNR675-labeled peptides in draining inguinal lymph nodes; parameters: species or system  mice; conditions: subcutaneous
Description: Next, the conjugated proteins were quantitatively determined from the calibration curve of the FNR675-NHS ester using a UV-Vis spectrophotometer (UV-2700, Shimadzu, Japan).
The fluorescence signals in the draining lymph nodes were determined and are depicted in FIG. 16. In addition, six hours after injection, the draining inguinal LN (iLN) cells were prepared, and then in vivo DC-targeting was determined by FACS analysis gating upon CD11c^+ cell population, and the results are depicted in FIG. 17.

TC-1 cells [3] = test: Antitumor efficacy of peptides in TC-1 tumor-bearing mice (survival, tumor volume); format: in vivo, C57BL/6 mice
Description: Female SPF C57BL/6 mice 7 to 8 weeks old were purchased from ORIENT (Seongnam-si, Gyeonggi-do, Korea). TC-1 cells were cultured in RPMI 1640 medium supplemented with 10% heat-inactivated FIBS, 100 units/ml penicillin, and 100 μg/ml streptomycin at 37° C. under 5% CO2. Tumors were established in mice by subcutaneous injection of 5×10^4 TC-1 cells in 100 μl of PBS into the right mid-flank of each mouse. […] Tumor growth was monitored every three days. The tumor volume was calculated with formula V=(tumor length)×(tumor width)×(tumor height)/2.
The tumor-bearing mice were administered the all-in-one vaccine of the present disclosure as in Example 5 and measured for survival rate and tumor volume in the same manner. For a positive control, a group of mice was immunized with HPV16 E7 CTL peptide (amino acid 49-57: […]), known as a cytotoxic T lymphocyte (CTL)-inducing peptide.

[4] = tested on: Bone marrow-derived dendritic cells (BMDCs); test: Antigen-presenting cell activation (CD80 and CD86 on BMDC surface); format: cell-based, C57BL/6 mice; conditions: 0.5 μg/ml, 24 hours
Text: The cells were stained on ice with fluorophore-labeled antibodies before flow cytometry analysis.

[5] = tested on: CTL epitope-specific tetramer+ CD8+ cells; test: Antigen-specific T cell immune response (E7 tetramer+ CD8+ cells in peripheral blood); format: in vivo, mice
Description: The peptides of the present disclosure as in Example 5 were administered to mice with or without tumors and peripheral blood was collected therefrom. After removal of RBC by RBC lysis buffer, the blood was stained with the tetramer antibody (PE-conjugated HPV16 H-2Db-[…], TB-5008-1, MBL) and CD8 antibody and analyzed by flow cytometry.

[6] = tested on: IFN-γ-producing cells of spleen (SPL) or tumor-draining lymph nodes (TDLNs); test: CTL peptide-specific immune response (IFN-γ ELISpot); format: in vivo, mice
Description: Single-cell suspensions from the spleen (SPL) or tumor-draining lymph nodes (TDLNs) were prepared by administering the peptides of the present disclosure to mice with or without tumors in the same manner as in Example 5. A total of 1×10^6 SPL or 2.5×10^5 TDLNs cells were seeded into 96-well Filtration ELISpot plates (Merck, HAMAS4510) and stimulated with 1 μg/ml E7 CTL peptide (amino acids 49-57: […]). Cells stimulated with 10 ng/ml concanavalin A were used as a positive control. After two days of culture of SPL cells or five days of culture of TDLN cells, IFN-γ-producing cells were detected by using the mouse IFN-γ ELISpot Set (BD Bioscience, 551083) according to the manufacturer's instructions. IFN-γ-producing cells were analyzed using a CTL-ImmunoSpot Analyzer and ImmunoSpot Professional Software version 5.0 (Cellular Technology, Shaker Heights, OH, USA).

TC-1 cells [7] = test: Antitumor effect in TLR5-knockout TC-1 tumor-bearing mice; format: in vivo
Text: (§1) Wild-type (WT), TLR5-knockout (TLR5^−/−) and NLRC4-knockout (NLRC4^−/−) mouse groups were implanted with TC-1 cells in the right mid-flank. […] The results are depicted in FIG. 25.

TC-1 cells [8] = test: Antitumor effect in NLRC4-knockout TC-1 tumor-bearing mice; format: in vivo; conditions: 20 μg
Text: as §1

CD8^+ T cells = test: Peptide-mediated CD8+ T cell activation (CFSE dilution, coculture with pulsed BMDCs); format: cell-based, mice
Description: CD8^+ splenocytes from TC-1 tumor-bearing mice were prepared using the MagniSort™ Mouse CD8 T Cell Enrichment kit (Invitrogen, 8804-6822) according to the manufacturer's instructions, and were labeled with 5 μM CFSE. EF- or DEF-pulsed BMDCs were cocultured with CFSE-stained CD8^+ cells at a ratio of 1:5 (BMDC:CD8^+ T cells) for 3 days in RPMI 1640 medium supplemented with 10% fetal bovine serum (HyClone, Logan, UT), 1% penicillin/streptomycin (Life Technologies, Grand Island, NY), and 50 μM 2-mercaptoethanol (Sigma, 516732). CD8^+ T cell proliferation was assessed by CFSE dilution using flow cytometry.

[9] = versus E7 Pep+F positive control

T1 sequence (O60602 21-858): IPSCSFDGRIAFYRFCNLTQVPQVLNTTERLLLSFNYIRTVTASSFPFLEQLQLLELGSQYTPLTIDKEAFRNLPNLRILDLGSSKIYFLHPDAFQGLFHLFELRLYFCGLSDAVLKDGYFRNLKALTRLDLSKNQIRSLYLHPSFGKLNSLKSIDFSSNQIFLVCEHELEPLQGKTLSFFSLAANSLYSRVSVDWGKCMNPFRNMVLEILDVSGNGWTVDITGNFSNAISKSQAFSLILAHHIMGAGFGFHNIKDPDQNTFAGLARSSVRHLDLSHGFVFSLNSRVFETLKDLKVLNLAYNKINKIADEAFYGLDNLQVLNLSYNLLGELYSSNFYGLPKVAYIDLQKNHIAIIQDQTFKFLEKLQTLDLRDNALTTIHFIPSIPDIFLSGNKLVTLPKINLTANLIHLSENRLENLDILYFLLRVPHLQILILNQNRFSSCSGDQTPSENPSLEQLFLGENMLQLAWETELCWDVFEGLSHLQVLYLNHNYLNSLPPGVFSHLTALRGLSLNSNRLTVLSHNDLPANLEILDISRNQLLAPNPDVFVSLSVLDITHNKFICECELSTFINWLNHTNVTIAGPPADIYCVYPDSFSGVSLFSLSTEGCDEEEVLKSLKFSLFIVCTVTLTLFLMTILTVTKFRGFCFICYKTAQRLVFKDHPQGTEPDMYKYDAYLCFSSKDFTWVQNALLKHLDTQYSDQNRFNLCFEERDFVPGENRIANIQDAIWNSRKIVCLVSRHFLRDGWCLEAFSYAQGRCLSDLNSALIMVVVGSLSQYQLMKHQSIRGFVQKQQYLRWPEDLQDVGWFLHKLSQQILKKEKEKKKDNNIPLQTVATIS

B1: DEF (protein)
chain: MRFFCLGPLGFTKVDIDGPAGQAEPDRAHYNIVTFCCKCDSTLRLCVQSTHVDIRTLEDLLMGTLGIVCPICSQKPEFIDGPAGQAEPDRAHYNIVTFCCKCDSTLRLCVQSTHVDIRTLEDLLMGTLGIVCPICSQKPVDIDGPAGQAEPDRAHYNIVTFCCKCDSTLRLCVQSTHVDIRTLEDLLMGTLGIVCPICSQKPVDIDGPAGQAEPDRAHYNIVTFCCKCDSTLRLCVQSTHVDIRTLEDLLMGTLGIVCPICSQKPKLMAVNVNTNVAAMTAQRYLNNANSAQQTSMERLSSGFKINSAKDDAAGLQISNRLNVQSRGLDVAVRNANDGISIAQTAEGAMNETTNILQRMRDLSLQSANGSNSKSERVAIQEEVTALNDELNRIAETTSFGGNKLLNGTYGTKAMQIGADNGEAVMLSLKDMRSDNVMMGGVSYQAEEGKDKNWNVAAGDNDLTIALTDSFGNEQEIEINAKAGDDIEELATYINGQTDLVKASVGEGGKLQIFAGNNKVQGEIAFSGSLAGELGLGEGKNVTVDTIDVTTVQGAQESVAIVDAALKYVDSHRAELGAFQNRFNHAISNLDNINENVNASKSRIKDTDFAKETTQLTKTQILSQASSSILAQAKQAPNSALSLLGLEHHHHHH
modifications: DCpep6::4xE7deltaNLS::FlaB (DEF)
TLR5
  NF-κB activity levels (FIG. 13): increased the activity in dose-dependent manners
[1]
  cellular uptake in bone marrow-derived dendritic cells (FIG. 14): concentration-dependent cellular uptake
BMDCs or RAW264.7 cells
  intracellular location (FIG. 15): located in the cytoplasm of CD11c^+ cells
[2]
  time to removal from the draining lymph nodes post administration: ≤ 24 h
TC-1 cells [3]; among all administered groups
  tumor volume (FIG. 19): smallest
TC-1 cells [3]; compared with E7ΔNLS (E)-administered group
  survival (FIG. 18): significantly longer survival; also recorded: longest survival
TC-1 cells [3]; [9]
  survival compared with HPV16 E7 CTL peptide+FlaB (E7 Pep+F) group (FIG. 18): notably longer survival
  tumor volume compared with HPV16 E7 CTL peptide+FlaB (E7 Pep+F) group (FIG. 19): remarkably much smaller
[4]
  expression of CD80 and CD86 on BMDC surface (FIG. 20): significantly enhanced expression
[5]; mice without tumors
  tetramer-positive cells in peripheral blood (FIG. 22): remarkably high levels
[5]; tumor-bearing mice, compared with PBS, E and EF groups
  CTL epitope-specific tetramer-positive CD8+ cells in peripheral blood (FIG. 21): significantly higher levels
[6]; mice without tumors
  IFN-γ production (FIG. 24): significantly higher level
[6]; tumor-bearing mice, compared to PBS, E and EF
  IFN-γ production level in SPL and TDLNs (FIG. 23): significantly enhanced
TC-1 cells [7]; 20 μg, TLR5^−/− versus wild-type
  survival and tumor volume effect in TLR5^−/− mice relative to wild-type mice (FIG. 25): significantly lower levels
TC-1 cells [7]; TLR5^−/− mice, 20 μg subcutaneous peritumoral three times, compared to PBS group
  survival (FIG. 25): significantly longer survival
TC-1 cells [7]; TLR5^−/− mice, 20 μg, compared to PBS group
  tumor volume (FIG. 25): decreased
TC-1 cells [8]
  effects on tumor volume and survival (FIG. 25): abolished
CD8^+ T cells; NLRC4-knockout (NLRC4^−/−) mice, 1 μg/mL
  division index of CD8+ T cells (FIG. 26): rather decreased
CD8^+ T cells; wild-type (WT) mice BMDCs pulsed with 1 μg/mL for 24 hours, coculture 1:5 for 3 days
  division index of CD8+ T cells (FIG. 26): significantly enhanced
